Target: the molecule itself
Test: SEC-MALS

B1: DCP2_(C-tail), untagged (domain or fragment, human, UniProt Q8IU60 249-353, looked up)
chain: SDNGFSSTGSTPAKPTVEKLSRTKFRHSQQLFPDGSPGDQWVKHRQPLQQKPYNNHSEMSDLLKGKNQSMRGNGRKQYQDSPNQKKRTNGLQPAKQQNSLMKCEK
B1: binds.
